The values below come from paper doi:10.1101/2021.01.26.428356, “Sequence signatures of two IGHV3-53/3-66 public clonotypes to SARS-CoV-2 receptor binding domain” (bioRxiv, 2021).

Broadly, the Kd is the equilibrium constant for the complex coming apart. A lower Kd goes with a tighter complex.

This experiment has as its target T1, Fc-tagged receptor-binding domain (RBD) of the SARS-CoV-2 spike (S) protein (SARS-CoV-2, Wuhan-Hu-1 (GenBank …, UniProt P0DTC2)).
T1 construct: also called SARS-CoV-2 RBD; SARS-CoV-2 S RBD-Fc; not shown: Fc, C-terminal, kept
Description: BLI; Octet Red96e; Fc-tagged RBD loaded onto the biosensor (streptavidin biosensors as printed), Fab in solution; 1x PBS pH 7.4, 0.01% w/v BSA, 0.002% v/v Tween 20; 60 s association, 60 s dissociation; 1:1 binding model. The settings on record: both partners purified. In general terms: In BLI a coated tip is dipped into the sample, and binding shifts an interference pattern.

B1: COV107-23 Fab, wild type (F58) (Fab, V domains shown)
VH: EVQLVESGGGLIQPGGSLRLSCAASGFTVSSNYMSWVRQAPGKGLEWVSVIYSGGSTFYADSVKGRFTISRDNSKNTLYLQMNSLRAEDTAVYYCARDLGTGLFDYWGQGTLVTVSS
VL: DIQLTQSPSFLSASVGDRVTITCRASQGISSYLAWYQQKPGKAPKLLIYAASTLQSGVPSRFSGSGSGTEFTLTISSLQPEDFATYYCQQLDSYPPGTFGPGTKVDIK
notes: also called WT COV107-23; clonotype 1 antibody; source: Expi293F, transiently co-transfected, purified (CaptureSelect CH1-XL column)
Take B1: the Kd is 1 nM.

B2: COVA2-20 Fab, wild type (Y58) (Fab, V domains shown)
VH: EVQLVESGGGLIQPGGSLRLSCAASGFTVSSNYMSWVRQAPGKGLEWVSVIYSGGSTYYADSVKGRFTISRDNSKNTLYLQMNSLRAEDTAVYYCASPLLLTPPDYYYYMDVWGKGTMVTVSS
VL: DVVMTQSPSSLSVSVGDRVTITCRASQGIRNDLGWYQQKPGKAPKRLIYAASSLQSGVPSRFSGSGSGTEFTLTISSLQPEDFATYYCLQHNSYLWTFGQGTKLEIK
Turning to B2, the binding result is given as “binds”.
